From patent publication US20230374084A1, “POTENT AND SELECTIVE INHIBITORS OF NAV1.7” (ALDEVRON, LLC, priority 2020, published 2023)
Marks after values point to notes of the source that are not given here.

How the values were obtained:
Assay type in all cases: cell-based
human NaV1.5 channel = biological target: T1, human NaV1.5 channel (Homo sapiens, UniProt Q14524); experiment: Whole-cell patch-clamp electrophysiology in HEK293 cells stably expressing NaV1.5 (HEK-NaV1.5); conditions: HEK-NaV1.5 cells, 500 nM peptide vs control
T1 construct: expressed in transfected cells; host or cells: HEK293 cells stably expressing human NaV1.5 (G418 selection)
Protocol: HEK293 cells were maintained in DMEM and F-12 (Invitrogen, Carlsbad, CA), supplemented with 0.05% glucose, 0.5 mM pyruvate, 10% fetal bovine serum, 100 units/ml penicillin, and 100 μg/ml streptomycin (Invitrogen), and incubated at 37° C. with 5% CO2. HEK293 cells stably expressing the human NaV1.5 channel (hereafter referred to as HEK-NaV1.5 cells) were maintained similarly except for the addition of 500 μg/ml G418 (Invitrogen) to maintain stable NaV 1.5 expression. Cells were grown to 80-90% confluence, washed and re-plated at very low density prior to electrophysiological recordings.
(§1) Current densities were obtained by dividing Na^+ current (INa^+) amplitude by membrane capacitance. Current-voltage relationships were generated by plotting current density as a function of the […].
(§2) Statistics were calculated as mean and standard error of the mean (mean SEM) using Prism 7 (La Jolla, CA). The statistical significance of observed differences among groups was determined by Student's t-test or for two group comparisons significance was tested with unpaired. Electrophysiological data analysis was performed using Clampfit 9 software (Molecular Devices).
(§3) To test whether Peptide 1, 3, 7 and 8 had any modulatory effects on NaV 1.5-mediated Na^+ currents, we used whole-cell patch-clamp electrophysiology in HEK293 cells stably expressing NaV1.5 (HEK-NaV1.5) channels; each group was either treated with peptides 1, 3, 7 and 8 (500 nM from a stock solution dissolved in H2O or DMSO) or H2O and 0.1% DMSO alone (control).

NaV1.7 = biological target: T2, NaV1.7 (Homo sapiens, UniProt Q15858); experiment: Patch-clamp electrophysiology of HEK-NaV1.7 stable cells; conditions: HEK-NaV1.7 cells, 500 nM peptide
T2 construct: expressed in transfected cells; host or cells: HEK293 (human embryonic kidney) cells stably expressing NaV1.7
Protocol: HEK-NaV1.7 stable cell lines were plated at low density on glass cover slips for 3-4 hours and subsequently transferred to the recording chamber. Recordings were performed at room temperature (20-22° C.) […] using a MultiClamp 700B amplifier (Molecular Devices, Sunnyvale, CA). The composition of recording solutions consisted of the following salts: extracellular (mM): 140 NaCl, 3 KCl, 1 MgCl2, 1 CaCl2), 10 HEPES, 10 glucose, pH 7.3; intracellular (mM): 130 CH3O3SCs, 1 EGTA, 10 NaCl, 10 HEPES, pH 7.3. Membrane capacitance and series resistance were estimated by the dial settings on the amplifier and compensated for electronically by 70-80%. Data were acquired at 20 kHz and filtered at 5 kHz prior to digitization and storage. All experimental parameters were controlled by Clampex 9.2 software (Molecular Devices) and interfaced to the electrophysiological equipment using a Digidata 1200 analog-digital interface (Molecular Devices). Voltage-dependent inward currents for HEK-NaV1.7 cells were evoked by depolarizations to test potentials between −100 mV and +60 mV from a holding potential of −70 mV followed by a voltage pre-step pulse of −120 mV (NaV1.7). Steady-state (fast) inactivation of NaV channels was measured with a paired-pulse protocol. From the holding potential, cells were stepped to varying test potentials between −120 mv (Nar 1.7) and +20 mV (pre-pulse) prior to a test pulse to −20 mV.
Current densities were obtained by dividing Na+ current (INa) amplitude by membrane capacitance. Current-voltage relationships were generated by plotting current density as a function of the […]. Conductance (GNa) was calculated by the following equation:
GNa=INa/(Vm−Erev) • where INa is the current amplitude at voltage Vm, and Erev is the Na^+ reversal potential.
To test whether given peptides (10 in total, listed below) had modulatory effects on NaV1.7-mediated Na^+ currents, we used patch-clamp electrophysiology of human embryonic kidney cells stably expressing NaV1.7 (HEK-NaV1.7).

NaV1.6 = biological target: T3, NaV1.6 (Homo sapiens, UniProt Q9UQD0); experiment: Whole-cell patch-clamp electrophysiology in HEK293 cells stably expressing NaV1.6 (HEK-NaV1.6); conditions: for effect on NaV1.6 currents / Peak current density, Nav1.6 (Treatment): HEK-NaV1.6 cells; for effect on NaV1.6 currents: 500 nM peptide vs control; for Peak current density, Nav1.6 (Treatment): mean ± SEM (n)
T3 construct: expressed in transfected cells; host or cells: HEK293 cells stably expressing NaV1.6
Protocol: HEK-NaV1.6 cells were plated at low density on glass cover slips for 3-4 hours and subsequently transferred to the recording chamber. Recordings were performed at room temperature (20-22° C.) after 48 h to thaw them using a MultiClamp 200B and 700B amplifier (Molecular Devices, Sunnyvale, CA). The composition of recording solutions consisted of the following salts; extracellular (mM): 140 NaCl, 3 KCl, 1 MgCl2, 1 CaCl2), 10 HEPES, 10 glucose, pH 7.3; intracellular (mM): 130 CH3O3SCs, 1 EGTA, 10 NaCl, 10 HEPES, pH 7.3. Membrane capacitance and series resistance were estimated by the dial settings on the amplifier and compensated for electronically by 70-75%. Data were acquired at 20 kHz and filtered at 5 kHz prior to digitization and storage. All experimental parameters were controlled by Clampex 9.2 software (Molecular Devices) and interfaced to the electrophysiological equipment using a Digidata 1200 analog-digital interface (Molecular Devices). Voltage-dependent inward currents for HEK-NaV 1.6 cells were evoked by depolarization to test potentials between −100 mV and +60 mV from a holding potential of −70 mV followed by a voltage pre-step pulse of −120 mV (Nar 1.6).
as §1, §2
as §3, with “1.6-mediated” for “1.5-mediated”, “NaV1.6 (HEK-NaV1.6)” for “NaV1.5 (HEK-NaV1.5)”, “(control). […] However, peptide 7 potentiates the NaV1.6-mediated transient Na^+ currents (INa+), and were not statistically different compared to control (FIG. 17 A-C and Table 1).” for “(control).”

T3 sequence (Q9UQD0 whole entry): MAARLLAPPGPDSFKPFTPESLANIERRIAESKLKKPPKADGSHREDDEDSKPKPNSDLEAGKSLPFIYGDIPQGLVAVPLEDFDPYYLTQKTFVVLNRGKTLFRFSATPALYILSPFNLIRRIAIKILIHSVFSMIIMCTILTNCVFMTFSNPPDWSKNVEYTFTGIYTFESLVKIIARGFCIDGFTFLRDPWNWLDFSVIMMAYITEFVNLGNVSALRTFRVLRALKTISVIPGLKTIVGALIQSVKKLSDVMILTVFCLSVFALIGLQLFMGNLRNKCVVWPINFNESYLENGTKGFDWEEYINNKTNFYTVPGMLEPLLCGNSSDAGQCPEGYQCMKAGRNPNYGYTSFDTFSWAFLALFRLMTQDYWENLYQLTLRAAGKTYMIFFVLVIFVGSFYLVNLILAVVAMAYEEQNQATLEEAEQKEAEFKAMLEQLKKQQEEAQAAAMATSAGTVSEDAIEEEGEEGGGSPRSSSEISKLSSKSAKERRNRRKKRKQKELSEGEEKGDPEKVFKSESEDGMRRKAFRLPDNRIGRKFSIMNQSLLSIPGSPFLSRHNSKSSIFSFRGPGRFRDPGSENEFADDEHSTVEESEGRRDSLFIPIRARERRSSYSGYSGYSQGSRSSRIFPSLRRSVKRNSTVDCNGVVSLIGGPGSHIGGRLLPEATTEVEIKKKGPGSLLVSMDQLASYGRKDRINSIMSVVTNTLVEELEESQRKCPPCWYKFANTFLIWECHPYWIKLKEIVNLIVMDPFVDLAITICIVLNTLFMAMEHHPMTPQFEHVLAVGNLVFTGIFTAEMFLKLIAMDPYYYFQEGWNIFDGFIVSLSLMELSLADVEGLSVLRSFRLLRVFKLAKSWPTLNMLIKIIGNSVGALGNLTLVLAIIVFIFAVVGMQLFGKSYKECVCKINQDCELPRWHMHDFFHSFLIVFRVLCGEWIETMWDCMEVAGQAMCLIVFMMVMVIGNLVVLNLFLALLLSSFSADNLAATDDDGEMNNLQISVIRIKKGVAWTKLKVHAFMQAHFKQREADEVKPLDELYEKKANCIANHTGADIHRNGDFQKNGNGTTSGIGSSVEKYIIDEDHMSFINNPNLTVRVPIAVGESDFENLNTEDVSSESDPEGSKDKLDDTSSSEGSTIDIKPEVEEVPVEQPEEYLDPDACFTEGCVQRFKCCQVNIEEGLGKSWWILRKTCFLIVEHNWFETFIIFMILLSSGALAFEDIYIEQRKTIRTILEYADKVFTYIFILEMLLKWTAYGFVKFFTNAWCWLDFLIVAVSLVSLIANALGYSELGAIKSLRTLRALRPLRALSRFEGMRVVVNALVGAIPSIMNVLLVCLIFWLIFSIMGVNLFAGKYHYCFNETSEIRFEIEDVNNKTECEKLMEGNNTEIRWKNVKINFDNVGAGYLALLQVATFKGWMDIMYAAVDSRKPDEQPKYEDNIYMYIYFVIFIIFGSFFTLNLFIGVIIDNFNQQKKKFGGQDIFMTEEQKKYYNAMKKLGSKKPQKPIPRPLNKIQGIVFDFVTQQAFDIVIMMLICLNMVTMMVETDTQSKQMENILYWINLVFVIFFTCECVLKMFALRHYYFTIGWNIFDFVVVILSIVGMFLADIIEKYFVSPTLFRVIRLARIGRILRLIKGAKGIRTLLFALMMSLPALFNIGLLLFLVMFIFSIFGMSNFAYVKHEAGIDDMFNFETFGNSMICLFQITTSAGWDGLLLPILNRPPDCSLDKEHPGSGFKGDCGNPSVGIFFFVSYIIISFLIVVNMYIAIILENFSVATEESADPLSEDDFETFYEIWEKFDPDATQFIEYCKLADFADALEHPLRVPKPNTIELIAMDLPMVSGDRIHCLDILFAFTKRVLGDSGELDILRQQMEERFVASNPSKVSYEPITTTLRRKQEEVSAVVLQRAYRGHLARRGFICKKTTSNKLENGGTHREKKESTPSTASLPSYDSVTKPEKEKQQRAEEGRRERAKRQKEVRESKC
T2 sequence (Q15858 whole entry): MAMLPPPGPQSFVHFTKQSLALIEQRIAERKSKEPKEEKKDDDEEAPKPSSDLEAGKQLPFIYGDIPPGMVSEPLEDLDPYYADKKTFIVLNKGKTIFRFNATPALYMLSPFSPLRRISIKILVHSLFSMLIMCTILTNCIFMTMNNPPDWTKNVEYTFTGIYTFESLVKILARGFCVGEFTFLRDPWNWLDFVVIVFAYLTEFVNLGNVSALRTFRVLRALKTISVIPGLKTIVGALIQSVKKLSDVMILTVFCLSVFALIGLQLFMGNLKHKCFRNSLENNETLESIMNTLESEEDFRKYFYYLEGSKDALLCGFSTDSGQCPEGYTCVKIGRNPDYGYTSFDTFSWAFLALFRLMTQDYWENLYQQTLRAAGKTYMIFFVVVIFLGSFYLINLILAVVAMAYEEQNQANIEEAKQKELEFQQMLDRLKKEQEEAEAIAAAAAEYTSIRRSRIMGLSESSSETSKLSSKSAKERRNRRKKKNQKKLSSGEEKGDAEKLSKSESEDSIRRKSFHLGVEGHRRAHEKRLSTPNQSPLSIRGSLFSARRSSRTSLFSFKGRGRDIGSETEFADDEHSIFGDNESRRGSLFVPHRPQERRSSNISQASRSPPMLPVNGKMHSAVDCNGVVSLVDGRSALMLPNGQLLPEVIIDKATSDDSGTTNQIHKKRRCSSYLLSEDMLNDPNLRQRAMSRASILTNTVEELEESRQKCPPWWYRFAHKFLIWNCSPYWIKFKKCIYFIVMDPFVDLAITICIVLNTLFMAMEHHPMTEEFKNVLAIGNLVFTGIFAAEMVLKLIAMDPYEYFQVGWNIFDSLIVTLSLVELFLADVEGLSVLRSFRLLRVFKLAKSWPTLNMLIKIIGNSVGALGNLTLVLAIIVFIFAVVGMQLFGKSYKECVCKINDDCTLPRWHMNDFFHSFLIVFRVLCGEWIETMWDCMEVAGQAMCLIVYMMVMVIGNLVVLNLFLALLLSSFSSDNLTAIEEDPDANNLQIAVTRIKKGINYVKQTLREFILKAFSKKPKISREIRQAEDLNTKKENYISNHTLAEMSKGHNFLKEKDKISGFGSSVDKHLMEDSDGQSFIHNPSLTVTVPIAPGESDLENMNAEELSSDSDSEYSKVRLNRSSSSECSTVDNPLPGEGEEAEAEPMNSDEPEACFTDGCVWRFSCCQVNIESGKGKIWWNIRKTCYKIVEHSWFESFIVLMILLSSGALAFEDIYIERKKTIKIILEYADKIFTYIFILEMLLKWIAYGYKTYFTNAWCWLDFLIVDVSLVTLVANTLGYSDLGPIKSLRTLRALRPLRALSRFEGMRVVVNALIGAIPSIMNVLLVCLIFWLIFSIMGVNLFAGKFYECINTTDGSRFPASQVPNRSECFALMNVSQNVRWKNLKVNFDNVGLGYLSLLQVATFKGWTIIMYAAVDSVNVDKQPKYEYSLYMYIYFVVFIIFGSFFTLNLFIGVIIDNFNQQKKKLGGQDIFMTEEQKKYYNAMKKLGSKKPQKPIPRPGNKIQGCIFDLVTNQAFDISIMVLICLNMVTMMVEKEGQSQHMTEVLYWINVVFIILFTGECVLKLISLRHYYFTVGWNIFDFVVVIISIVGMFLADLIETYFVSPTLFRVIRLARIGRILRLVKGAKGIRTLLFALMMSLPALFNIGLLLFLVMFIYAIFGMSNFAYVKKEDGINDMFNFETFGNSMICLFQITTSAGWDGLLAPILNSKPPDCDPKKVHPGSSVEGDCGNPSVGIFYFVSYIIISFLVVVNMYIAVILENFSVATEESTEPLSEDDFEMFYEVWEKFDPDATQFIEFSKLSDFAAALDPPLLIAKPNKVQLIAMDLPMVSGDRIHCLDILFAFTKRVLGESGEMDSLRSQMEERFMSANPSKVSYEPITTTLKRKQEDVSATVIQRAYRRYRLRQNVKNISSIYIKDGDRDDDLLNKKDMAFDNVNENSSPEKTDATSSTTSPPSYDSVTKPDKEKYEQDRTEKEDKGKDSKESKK

## DCLGLFRKCIPDMLKCCRFNLVCSRLHKWCKYVF (Synthetic Peptide 3)
Human NaV1.5 channel
  effect on NaV1.5 currents: suppressed
NaV1.7
  blockage of the NaV1.7 sodium channel: substantial blockage
NaV1.6
  effect on NaV1.6 currents: suppressed
NaV1.6; listed as peptide 3
  effect on NaV1.6 currents: suppresses
NaV1.6; 500 nM peptide
  Peak current density, Nav1.6 (Treatment): 25.32 ± 4.1 (6)^b

## IGEKVTIRLITSTNINDDFNIYQQKPGEPPKLL (Synthetic Peptide 7)
Human NaV1.5 channel
  effect on NaV1.5 currents: no effects
NaV1.7
  blockage of the NaV1.7 sodium channel: substantial blockage
NaV1.6
  effect on NaV1.6 currents: potentiates
NaV1.6; 500 nM peptide
  Peak current density, Nav1.6 (Treatment): 121.14 ± 16.6 (10)^c

## SDEIPATFGGGTDAGL (Synthetic Peptide 1)
Human NaV1.5 channel
  effect on NaV1.5 currents: no effects
NaV1.7
  blockage of the NaV1.7 sodium channel: substantial blockage
NaV1.6
  effect on NaV1.6 currents: suppressed
NaV1.6; listed as peptide 1
  effect on NaV1.6 currents: suppresses
NaV1.6; 500 nM peptide
  Peak current density, Nav1.6 (Treatment): 25.65 ± 5.2 (13)^a

## DCLGFMRKCLSTTDLDDDWNCCRPNLVCSRTHKWCKYVF (Synthetic Peptide 8)
Human NaV1.5 channel
  effect on NaV1.5 currents: no effects
NaV1.7
  blockage of the NaV1.7 sodium channel: substantial blockage
NaV1.6; 500 nM peptide, control 194.86, n=8, treatment n=7, sentence cites FIG. 14A-C
  peak current density, treatment (text of b104): 104.78
NaV1.6
  effect on NaV1.6 currents: no effects
NaV1.6; listed as peptide 8
  effect on NaV1.6 currents: no statistically significant effect
NaV1.6; 500 nM peptide
  Peak current density, Nav1.6 (Treatment): 59.75 ± 5.4 (6)^NS
